Data: PMC7408065, “Heterodimeric Radiotracer Targeting PSMA and GRPR for Imaging of Prostate Cancer—Optimization of the Affinity towards PSMA by Linker Modification in Murine Model” (Pharmaceutics, 2020)
Numbered stars: 1 amine (or outer) side, 2 acyl side, 3 side chain; on linkers, the order of the positions; unused ones are H or OH. Square brackets hold non-standard residues; d marks the D form. Peptide text beside a SMILES is read from it. * marks the point of attachment. NOTA = O=C(O)CN1CCN(CC(=O)O)CCN(CC(=O)*)CC1; γGlu = O=C(O)[C@H](CCC(=O)[*:2])N[*:1]; Sta = CC(C)C[C@H](N)[C@@H](O)CC(=O)O; AEEA = NCCOCCOCC(=O)O; Aoc = NCCCCCCCC(=O)O; CO = O=C([*:1])[*:2]

Legend:
[1] = Distribution coefficient (LogD), n-octanol/water; type: physicochemical; settings: indium-111 labeled compound
Description: The tube was vortexed, centrifuged and fractions (100 µL) from each phase were collected and activity was measured using a gamma counter. The experiment was repeated twice for each compound.

PC3-pip xenografts = test: in vivo; set-up: species or system BALB/c nu/nu mice; settings: mouse
Description: (§1) The in vivo experiments were performed using BALB/c nu/nu mice bearing PC3-pip xenografts. The mice were implanted with 5 × 10^6 PC3-pip cells 12 days prior to the experiments. In vivo experiments were planned and performed in accordance with the national legislation on laboratory animals’ protection and were approved by the Ethics Committee for Animal Research in Uppsala, Sweden. PC3-pip tumor-bearing mice were injected with 40 pmol (30 kBq) of [^111In]In-BQ7812 per mouse. Groups were also co-injected with 7.5 nmol of non-labeled NOTA-PEG4-RM26 and/or 7.5 nmol of non-labeled PSMA-11 to block GRPR and/or PSMA. Mice were euthanized at 1, 3 and 24 h pi. Organs of interest were collected, weighed and the activity uptake in each organ was measured using a gamma counter.

in vivo = test: in vivo; set-up: species or system BALB/c nu/nu mice; settings: BALB/c nu/nu, mouse, 40 pmol/animal, total radioactivity; for tissue uptake at 1 h: Activity uptake; for tissue to tissue ratio at 1 h / tissue to tissue ratio at 3 h / tissue to tissue ratio at 24 h: Tumor-to-organ ratio
Description: as §1

CC(C)C[C@H](NC(=O)C[C@H](O)[C@H](CC(C)C)NC(=O)[C@H](Cc1c[nH]cn1)NC(=O)CNC(=O)[C@@H](NC(=O)[C@H](C)NC(=O)[C@H](Cc1c[nH]c2ccccc12)NC(=O)[C@H](CCC(N)=O)NC(=O)[C@@H](Cc1ccccc1)NC(=O)COCCOCCNC(=O)[C@H](CCCCNC(=O)CN1CCN(CC(=O)O)CCN(CC(=O)O)CC1)NC(=O)[C@H](Cc1ccccc1)NC(=O)CCCCCCCNC(=O)CC[C@H](NC(=O)N[C@@H](CCC(=O)O)C(=O)O)C(=O)O)C(C)C)C(N)=O [BQ7812] ({Glu-CO-γGlu-Aoc}-FK(NOTA)[AEEA][dF]QWAVGH[Sta]L-NH2)
logD [1]: -1.44

CC(C)C[C@H](NC(=O)C[C@H](O)[C@H](CC(C)C)NC(=O)[C@H](Cc1c[nH]cn1)NC(=O)CNC(=O)[C@@H](NC(=O)[C@H](C)NC(=O)[C@H](Cc1c[nH]c2ccccc12)NC(=O)[C@H](CCC(N)=O)NC(=O)[C@@H](Cc1ccccc1)NC(=O)COCCOCCNC(=O)[C@H](CCCCNC(=O)CN1CCN(CC(=O)O)CCN(CC(=O)O)CC1)NC(=O)[C@H](Cc1ccccc1)NC(=O)CCCCCCCNC(=O)CC[C@H](NC(=O)N[C@@H](CCC(=O)O)C(=O)O)C(=O)O)C(C)C)C(N)=O [[^111In]In-BQ7812, metal not drawn] ({Glu-CO-γGlu-Aoc}-FK(NOTA)[AEEA][dF]QWAVGH[Sta]L-NH2)
tumor-to-liver ratio (PC3-pip xenografts): over five | tissue uptake at 1 h (in vivo; Lung): 1.34 %ID/g | tissue uptake at 1 h (in vivo; Pancreas): 5.83 %ID/g | tissue to tissue ratio at 1 h (in vivo; Blood): 11.7 ± 2.3 | tissue to tissue ratio at 3 h (in vivo; Blood): 55.5 ± 15.6 | tissue to tissue ratio at 24 h (in vivo; Blood): 68.9 ± 10.4 | tissue to tissue ratio at 1 h (in vivo; Bone): 24.5 ± 3.25 | tissue to tissue ratio at 3 h (in vivo; Bone): 35.1 ± 25.7 | tissue to tissue ratio at 24 h (in vivo; Bone): 10.9 ± 2.46 | tissue to tissue ratio at 1 h (in vivo; Kidney): 0.27 ± 0.07 | tissue to tissue ratio at 3 h (in vivo; Kidney): 0.39 ± 0.09 | tissue to tissue ratio at 24 h (in vivo; Kidney): 0.18 ± 0.02 | tissue to tissue ratio at 1 h (in vivo; Liver): 4.56 ± 0.77 | tissue to tissue ratio at 3 h (in vivo; Liver): 3.08 ± 1 | tissue to tissue ratio at 24 h (in vivo; Liver): 1.04 ± 0.15 | tissue to tissue ratio at 1 h (in vivo; Lung): 12.3 ± 1.34 | tissue to tissue ratio at 3 h (in vivo; Lung): 25.3 ± 10 | tissue to tissue ratio at 24 h (in vivo; Lung): 13.9 ± 1.65 | tissue to tissue ratio at 1 h (in vivo; Muscle): 41 ± 7.76 | tissue to tissue ratio at 3 h (in vivo; Muscle): 53.3 ± 24.4 | tissue to tissue ratio at 24 h (in vivo; Muscle): 23.6 ± 4.58 | tissue to tissue ratio at 1 h (in vivo; Pancreas): 2.77 ± 0.43 | tissue to tissue ratio at 3 h (in vivo; Pancreas): 10.9 ± 3.05 | tissue to tissue ratio at 24 h (in vivo; Pancreas): 8.19 ± 1.92 | tissue to tissue ratio at 1 h (in vivo; Salivary glands): 18.7 ± 2.6 | tissue to tissue ratio at 3 h (in vivo; Salivary glands): 20.6 ± 7.98 | tissue to tissue ratio at 24 h (in vivo; Salivary glands): 7.39 ± 1.88 | tissue to tissue ratio at 1 h (in vivo; Small intestine): 9.31 ± 1.8 | tissue to tissue ratio at 3 h (in vivo; Small intestine): 13.4 ± 3.68 | tissue to tissue ratio at 24 h (in vivo; Small intestine): 5.52 ± 2.17 | tissue to tissue ratio at 1 h (in vivo; Spleen): 11.5 ± 2.37 | tissue to tissue ratio at 3 h (in vivo; Spleen): 20.8 ± 5.1 | tissue to tissue ratio at 24 h (in vivo; Spleen): 6.32 ± 1.59 | tissue to tissue ratio at 1 h (in vivo; Stomach): 12.5 ± 2.36 | tissue to tissue ratio at 3 h (in vivo; Stomach): 18.3 ± 2.8 | tissue to tissue ratio at 24 h (in vivo; Stomach): 10.5 ± 2.28
